Data published in US12018066 (TRIAD NATIONAL SECURITY, dated 2024).
Where two headings read alike, the source gives them in different places.

B1: R26 minibody (scFv-Fc) (Fc fusion)
chain: SYELTQPPSVSVAPGQTATITCGGKNIESKSVHWYQQKPGQAPVLVVSDDTDRASGIPERFSGSNSGGAATLTISRVEAGDEADYYCQVWDSPSDHYVFGPGTKLTVLSGGSTITSYNVYYTKLSSSGTQVQLVESGGGVVQPGRSLRLSCAASGFTFSSYAMHWVRQAPGKGLEWVAVISYDGSNKYYADSVKGRFTISRDKAKNTLYLQMNSLRGEDTAVYYCARELSYYDSSGYLRGDWYFDLWGRGTLVTVSS
B2: E08 scFv (scFv)
scFv: SYVLTQPPSVSVAPGKTARITCGGNNIGWKSVHWYQQKPGQAPVLVVYDDSDRPSGIPERFSGSNSGNTATLTISRVEAGDEADYYCQVWDSSSDLVVFGGGTKLTVLSGGSTITSYNVYYTKLSSSGTQVQLVQSGAEVKKPGSSVKVSCKASGGTFSSYAISWVRQAPGQGLEWMGGIIPIFGTANYAQKFQGRVTITADESTSTAYMELSSLRSEDTAVYYCARASGRWLQFWHYYGMDVWGQGTTVTVSS
B3: E08 minibody (scFv-Fc) (Fc fusion)
chain: B2 scFv

How the values were obtained:
[1] = target: T1, SARS-CoV-2 spike protein receptor binding domain (RBD2) (SARS-CoV-2, UniProt P0DTC2 319-537); experiment: SPR, minibodies
[2] = target: T1, SARS-CoV-2 spike protein receptor …; experiment: SPR, immobilized antibody, RBD injected, 1:1 fit
[3] = target: T1, SARS-CoV-2 spike protein receptor …
[4] = target: T1, SARS-CoV-2 spike protein receptor …; experiment: flow cytometry, yeast-displayed scFv
[5] = target: SARS-CoV spike protein receptor binding domain (RBD1) (SARS-CoV, UniProt P59594 306-527); experiment: flow cytometry (yeast scFv) / minibody ELISA, FIGS. 7A-C
[6] = target: T1, SARS-CoV-2 spike protein receptor …; experiment: flow cytometry, yeast-displayed scFv, titration of biotinylated antigen
[7] = target: T1, SARS-CoV-2 spike protein receptor …; experiment: SPR

Binder	Kd [1] [nM]	Kd [2] [nM]	Kd [3] [nM]	Kd [4] [nM]	binding result [5]	Kd [6] [nM]	Kd [7] [nM]
B1	900	888					
B2			13.9	13.9	binds	13.9	
B3	4	3.6					3.6
